What all share (conditions): scale: % of the maximum spliced product formation
The target of test [1] is split mCherry-split intein C-terminal chimeric protein, IMPDH-1 intein split at site S2.
Test [2] addresses split mCherry-split intein C-terminal chimeric protein, NrdJ-1 intein split at site S2.
The target in test [3] is split mCherry-split intein C-terminal chimeric protein, SspGyrB intein split at site S2.
Test [4] concerns the target split mCherry-split intein C-terminal chimeric protein, gp41-1 intein split at site S2.
The target in test [5] is split mCherry-split intein C-terminal chimeric protein, gp41-8 intein split at site S2.

The values that follow come from paper PMC7090010.

“split mCherry-split intein N-terminal chimeric protein, IMPDH-1 intein split at site S2 (domain or fragment)” showed an in vitro trans-splicing of mixed lysates (room temperature, 100 mM Tris-HCl pH 9.0, 100 mM NaCl, 2 mM DTT): spliced mCherry by Western blot, share of the maximum spliced product within 1 h in test [1] above 75.

The substance “split mCherry-split intein N-terminal chimeric protein, NrdJ-1 intein split at site S2 (domain or fragment)” displayed an in vitro trans-splicing of mixed lysates (room temperature, 100 mM Tris-HCl pH 9.0, 100 mM NaCl, 2 mM DTT): spliced mCherry by Western blot, share of the maximum spliced product within 1 h in test [2] above 75.

“split mCherry-split intein N-terminal chimeric protein, SspGyrB intein split at site S2 (domain or fragment)” displayed an in vitro trans-splicing of mixed lysates (room temperature, 100 mM Tris-HCl pH 9.0, 100 mM NaCl, 2 mM DTT): spliced mCherry by Western blot, share of the maximum spliced product within 1 h in test [3] above 75.

For the substance “split mCherry-split intein N-terminal chimeric protein, gp41-1 intein split at site S2 (domain or fragment)”, the in vitro trans-splicing of mixed lysates (room temperature, 100 mM Tris-HCl pH 9.0, 100 mM NaCl, 2 mM DTT): spliced mCherry by Western blot, share of the maximum spliced product within 1 h in test [4] is above 75.

In turn, “split mCherry-split intein N-terminal chimeric protein, gp41-8 intein split at site S2 (domain or fragment)” showed an in vitro trans-splicing of mixed lysates (room temperature, 100 mM Tris-HCl pH 9.0, 100 mM NaCl, 2 mM DTT): spliced mCherry by Western blot, share of the maximum spliced product within 1 h in test [5] above 75.
